Test results published in US20130344070A1.

Target: human CCR2 (CC-Chemokine Receptor 2) (human) (UniProt P41597)
Test: cell-based or functional assay

human CCR2 (CC-Chemokine Receptor 2) (human), sequence (P41597 whole entry): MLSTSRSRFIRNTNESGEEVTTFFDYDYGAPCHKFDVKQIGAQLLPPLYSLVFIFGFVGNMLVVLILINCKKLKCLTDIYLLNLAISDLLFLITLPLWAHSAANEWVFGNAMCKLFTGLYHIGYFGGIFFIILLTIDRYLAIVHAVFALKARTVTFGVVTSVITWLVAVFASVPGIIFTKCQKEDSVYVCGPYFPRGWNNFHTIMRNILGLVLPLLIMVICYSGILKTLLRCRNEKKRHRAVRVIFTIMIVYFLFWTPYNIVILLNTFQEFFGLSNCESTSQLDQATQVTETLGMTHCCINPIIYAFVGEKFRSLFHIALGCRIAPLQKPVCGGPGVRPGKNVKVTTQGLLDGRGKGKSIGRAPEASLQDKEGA

B1: MLN1202 (Takeda) (antibody, INN chains, looked up, V domains shown)
VH: EVQLVESGGGLVKPGGSLRLSCAASGFTFSAYAMNWVRQAPGKGLEWVGRIRTKNNNYATYYADSVKDRFTISRDDSKNTLYLQMNSLKTEDTAVYYCTTFYGNGVWGQGTLVTVSS
VL: DVVMTQSPLSLPVTLGQPASISCKSSQSLLDSDGKTFLNWFQQRPGQSPRRLIYLVSKLDSGVPDRFSGSGSGTDFTLKISRVEAEDVGVYYCWQGTHFPYTFGQGTRLEIK
For B1, the IC50 in calcium flux assay using human THP-1 cells, ligand MCP-1 (2.5 nM) was 250 pM, the IC50 in calcium flux assay using human THP-1 cells, ligand MCP-3 (22 nM) was 110 pM and the IC50 in calcium flux assay using human THP-1 cells, ligand MCP-5 (0.43 nM) was 180 pM. For the same binder, the IC50 in chemotaxis assay using human THP-1 cells, ligand MCP-1 (3 nM) was 310 pM, the IC50 in chemotaxis assay using human THP-1 cells, ligand MCP-2 (6.7 nM) was 460 pM and the IC50 in chemotaxis assay using human THP-1 cells, ligand MCP-3 (1.1 nM) was 1830 pM. For the same binder, the IC50 in chemotaxis assay using human THP-1 cells, ligand MCP-4 (35 nM) was 840 pM, the IC50 in chemotaxis assay using human THP-1 cells, ligand MCP-5 (0.65 nM) was 370 pM and the IC50 on MCP-1 induced THP-1 cell migration was 309 pM. It also gave an IC50 on MCP-2 induced THP-1 cell migration of 459 pM, an IC50 on MCP-3 induced THP-1 cell migration of 1830 pM and an IC50 on MCP-4 induced THP-1 cell migration of 843 pM. The IC50 on mouse MCP-5 induced THP-1 cell migration was 368 pM.
